Usually Kd stands for the equilibrium constant for the complex coming apart. The low end stands for a tighter complex, the high end for a looser complex.

What all share (assay): EMSA
For orientation: Mobility shift assays separate free from complexed probe on a gel.

The target in series [1] is T1, Glo qRRM1,2 W58A (Drosophila, UniProt Q9VGH5 49-225, W58A).
T1 sequence: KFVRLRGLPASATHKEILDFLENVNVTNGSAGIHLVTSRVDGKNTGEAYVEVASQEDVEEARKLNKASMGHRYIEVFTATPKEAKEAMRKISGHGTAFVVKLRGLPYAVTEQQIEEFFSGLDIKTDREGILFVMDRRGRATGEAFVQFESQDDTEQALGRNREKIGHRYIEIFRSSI

Series [2] deals with T2, Glo qRRM3 (Drosophila, UniProt Q9VGH5 476-565).
T2 sequence: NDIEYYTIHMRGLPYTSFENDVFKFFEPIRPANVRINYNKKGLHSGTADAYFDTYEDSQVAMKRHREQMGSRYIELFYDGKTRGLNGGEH

Series [3] deals with T3, Glo qRRM2 (Drosophila, UniProt Q9VGH5 146-225).
T3 sequence: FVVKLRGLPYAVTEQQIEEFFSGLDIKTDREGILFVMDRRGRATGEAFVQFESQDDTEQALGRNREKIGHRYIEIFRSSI

Series [4] concerns the target T4, Glo qRRM1 (Drosophila, UniProt Q9VGH5 49-129).
T4 sequence: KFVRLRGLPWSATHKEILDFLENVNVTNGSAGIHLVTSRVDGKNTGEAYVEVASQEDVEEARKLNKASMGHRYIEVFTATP

Series [5] has as its target T5, Glo qRRM1,2 R52A,K149A (Drosophila, UniProt Q9VGH5 49-225, R52A;K149A).
T5 sequence: T1 sequence with R4A, A10W, K101A

Changes are numbered by the printed parent chain.

On to AGGGA (ssRNA) [G-tract RNA 5'-AGGGA], for which the binding result in series [1] and in series [5] was “binds” in each case. Further, the Kd in series [2] is 170 nM; in series [3], 620 nM; in series [4] it was 180 nM.

For the origin of these results see paper PMC5392723.
